Measured values as given in publication PMC9434101 (The EMBO Journal, 2022).
Ends that are not written are not given here.

B1: recombinant full-length MIA40/CHCHD4^C4S,C53S,C55S (natural protein)
chain: MSYSRQEGKDRIIFVTKEDHETPSSAELVADDPNDPYEEHGLILPNGNINWNSPSLGGMASGPCGEQFKSAFSCFHYSTEEIKGSDCVDQFRAMQECMQKYPDLYPQEDEDEEEEREKKPAEQAEETAPIEATATKEEEGSS

How the values were obtained:
[1] = biological target: T1, 6xHis-tagged AIFM1(103–613) (UniProt O95831 103-613); assay: ITC
[2] = biological target: T1, 6xHis-tagged AIFM1(103–613); assay: ITC; remark: listed apart in the source

T1 sequence (O95831 103-613): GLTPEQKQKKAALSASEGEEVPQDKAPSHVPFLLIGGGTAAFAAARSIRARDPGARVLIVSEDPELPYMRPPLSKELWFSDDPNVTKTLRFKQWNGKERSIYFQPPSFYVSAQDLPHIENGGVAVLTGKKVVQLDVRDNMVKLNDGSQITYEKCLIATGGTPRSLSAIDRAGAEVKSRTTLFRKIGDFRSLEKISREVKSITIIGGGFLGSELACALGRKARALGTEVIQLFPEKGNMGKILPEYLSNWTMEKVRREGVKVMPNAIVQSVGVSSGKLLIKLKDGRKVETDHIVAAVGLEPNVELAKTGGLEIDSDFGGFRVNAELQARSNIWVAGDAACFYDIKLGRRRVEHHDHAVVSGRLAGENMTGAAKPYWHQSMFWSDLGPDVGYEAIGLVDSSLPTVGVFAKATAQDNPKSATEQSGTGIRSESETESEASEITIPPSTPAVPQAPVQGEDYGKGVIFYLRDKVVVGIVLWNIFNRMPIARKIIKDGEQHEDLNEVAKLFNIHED

Row | Binder | stoichiometry N [1] [AIFM1 per MIA40/CHCHD4] | Kd [2] [nM]
1 | B1 | 2 | 
2 | GSEGKDRIIFVTKEDHETPSSAEL-NH2 [CHCHD4/MIA40 peptide (unlabeled), GSEGKDRIIFVTKEDHETPSSAEL-NH2] |  | 2940
